T1: scMenB (Synechocystis sp. PCC 6803, UniProt P73495)
T1 construct: gene menB; recombinant, purified to homogeneity; homohexamer
T1 sequence (P73495 1-275): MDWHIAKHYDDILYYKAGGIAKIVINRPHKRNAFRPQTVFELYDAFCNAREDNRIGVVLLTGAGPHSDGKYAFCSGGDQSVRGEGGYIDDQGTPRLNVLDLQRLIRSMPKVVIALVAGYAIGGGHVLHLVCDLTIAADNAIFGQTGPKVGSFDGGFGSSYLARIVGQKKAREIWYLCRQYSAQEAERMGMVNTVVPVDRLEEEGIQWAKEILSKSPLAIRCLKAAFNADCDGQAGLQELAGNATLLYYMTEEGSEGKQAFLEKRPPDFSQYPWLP

B1: 1,4-dihydroxy-2-naphthoyl coenzyme A (DHNA-CoA) synthase from Synechocystis sp. PCC 6803 (enzyme)
chain: MDWHIAKHYDDILYYKAGGIAKIVINRPHKRNAFRPQTVFELYDAFCNAREDNRIGVVLLTGAGPHSDGKYAFCSGGDQSVRGEGGYIDDQGTPRLNVLDLQRLIRSMPKVVIALVAGYAIGGGHVLHLVCDLTIAADNAIFGQTGPKVGSFDGGFGSSYLARIVGQKKAREIWYLCRQYSAQEAERMGMVNTVVPVDRLEEEGIQWAKEILSKSPLAIRCLKAAFNADCDGQAGLQELAGNATLLYYMTEEGSEGKQAFLEKRPPDFSQYPWLP
notes: DHNA-CoA synthase MenB, Synechocystis sp; PCC 6803; wild type; Crystallised with the small-molecule product analogs HNA-CoA or SA-CoA; also called scMenB; MenB
B2: ecMenB (Escherichia coli K-12; F270A) (protein)
chain: MIYPDEAMLYAPVEWHDCSEGFEDIRYEKSTDGIAKITINRPQVRNAFRPLTVKEMIQALADARYDDNIGVIILTGAGDKAFCSGGDQKVRGDYGGYKDDSGVHHLNVLDFQRQIRTCPKPVVAMVAGYSIGGGHVLHMMCDLTIAADNAIFGQTGPKVGSFDGGWGASYMARIVGQKKAREIWFLCRQYDAKQALDMGLVNTVVPLADLEKETVRWCREMLQNSPMALRCLKAALNADCDGQAGLQELAGNATMLFYMTEEGQEGRNAANQKRQPDFSKFKRNP
notes: recombinant; homohexamer, active site formed by two subunits across the trimer-trimer interface
B3: ecMenB (Escherichia coli K-12; R267A) (protein)
chain: MIYPDEAMLYAPVEWHDCSEGFEDIRYEKSTDGIAKITINRPQVRNAFRPLTVKEMIQALADARYDDNIGVIILTGAGDKAFCSGGDQKVRGDYGGYKDDSGVHHLNVLDFQRQIRTCPKPVVAMVAGYSIGGGHVLHMMCDLTIAADNAIFGQTGPKVGSFDGGWGASYMARIVGQKKAREIWFLCRQYDAKQALDMGLVNTVVPLADLEKETVRWCREMLQNSPMALRCLKAALNADCDGQAGLQELAGNATMLFYMTEEGQEGANAFNQKRQPDFSKFKRNP
notes: as for B2
B4: ecMenB (Escherichia coli K-12; K89A) (protein)
chain: MIYPDEAMLYAPVEWHDCSEGFEDIRYEKSTDGIAKITINRPQVRNAFRPLTVKEMIQALADARYDDNIGVIILTGAGDKAFCSGGDQAVRGDYGGYKDDSGVHHLNVLDFQRQIRTCPKPVVAMVAGYSIGGGHVLHMMCDLTIAADNAIFGQTGPKVGSFDGGWGASYMARIVGQKKAREIWFLCRQYDAKQALDMGLVNTVVPLADLEKETVRWCREMLQNSPMALRCLKAALNADCDGQAGLQELAGNATMLFYMTEEGQEGRNAFNQKRQPDFSKFKRNP
notes: as for B2
B5: 1,4-dihydroxy-2-naphthoyl coenzyme A (DHNA-CoA) synthase from Escherichia coli (enzyme)
chain: MIYPDEAMLYAPVEWHDCSEGFEDIRYEKSTDGIAKITINRPQVRNAFRPLTVKEMIQALADARYDDNIGVIILTGAGDKAFCSGGDQKVRGDYGGYKDDSGVHHLNVLDFQRQIRTCPKPVVAMVAGYSIGGGHVLHMMCDLTIAADNAIFGQTGPKVGSFDGGWGASYMARIVGQKKAREIWFLCRQYDAKQALDMGLVNTVVPLADLEKETVRWCREMLQNSPMALRCLKAALNADCDGQAGLQELAGNATMLFYMTEEGQEGRNAFNQKRQPDFSKFKRNP
notes: DHNA-CoA synthase MenB, Escherichia coli; Crystallised with the small-molecule product analog HNA-CoA; also called ecMenB; MenB

Columns and labels:
ecMenB = biological target: T2, ecMenB (Escherichia coli, UniProt P0ABU0); experiment: X-ray crystal structure, […] Å; type: binding; details: co-crystal, pH 5.5; active site, product analog; chloride at the bicarbonate site
T2 construct: gene menB; recombinant; homohexamer, active site formed by two subunits across the trimer-trimer interface

scMenB [1] = biological target: T1, scMenB; experiment: X-ray crystal structure, […] Å; type: binding; details: co-crystal, pH 5.70; active site, product analog; chloride at the bicarbonate site
scMenB [2] = biological target: T1, scMenB; experiment: X-ray crystal structure, […] Å; type: binding; details: pH 6.0
[3] = biological target: the molecule itself; experiment: crystal structure; scMenB (5 mg/ml) co-crystallised with 5 mM HNA-CoA; 0.15 M ammonium acetate, 0.3 M ammonium sulfate, 16% PEG 3350, 100 mM Bis-Tris pH 5.70; 2.35 A
purified protein = substrate: CC(C)(COP(=O)(O)OP(=O)(O)OC[C@H]1O[C@@H](n2cnc3c(N)ncnc32)[C@H](O)[C@@H]1OP(=O)(O)O)[C@@H](O)C(=O)NCCC(=O)NCCSC(=O)CCC(=O)c1ccccc1C(=O)O; experiment: purified protein; type: biochemical, Escherichia coli; details: 200 mM phosphate pH 7.0, 20 mM NaHCO3, OSB-CoA made in situ from SHCHC with MenC and MenE
[4] = biological target: the molecule itself; experiment: crystal structure; ecMenB co-crystallised with HNA-CoA; hanging drop, 294 K; 200 mM (NH4)2SO4, 23% PEG 3,350, 100 mM Bis-Tris pH 5.5; protein 10 mg/ml with 10 mM NaHCO3, 10 mM HNA-CoA, 20 mM KCl; 1.84 A

Row | Molecule | Km (purified protein) [µM] | kcat (purified protein) [s⁻¹] | kcat/Km (purified protein) [M⁻¹ s⁻¹] | further results
1 | CC(C)(COP(=O)(O)OP(=O)(O)OC[C@H]1O[C@@H](n2cnc3c(N)ncnc32)[C@H](O)[C@@H]1OP(=O)(O)O)[C@@H](O)C(=O)NCCC(=O)NCCSC(=O)c1ccc2ccccc2c1O [1-hydroxy-2-naphthoyl-CoA] | – | – | – | X-ray crystal structure, 1.84 Å (ecMenB): The ecMenB:HNA-CoA complex structure was solved by molecular replacement; X-ray crystal structure, 2.35 Å (scMenB [1]): structures of the yellowish scMenB: HNA-CoA and colorless scMenB: SA-CoA crystals were also solved
2 | CC(C)(COP(=O)(O)OP(=O)(O)OC[C@H]1O[C@@H](n2cnc3c(N)ncnc32)[C@H](O)[C@@H]1OP(=O)(O)O)[C@@H](O)C(=O)NCCC(=O)NCCSC(=O)c1ccccc1O [salicyloyl-CoA] | – | – | – | X-ray crystal structure, 2.00 Å (scMenB [2]; co-crystal, active site, product analog, bicarbonate bound): structures of the yellowish scMenB: HNA-CoA and colorless scMenB: SA-CoA crystals were also solved
3 | O=C(O)O [bicarbonate] | – | – | – | X-ray crystal structure, 2.00 Å (scMenB [2]; ternary complex with SA-CoA, bicarbonate site): a bicarbonate ion is found in the place of the chloride ion
4 | B1 | – | – | – | stoichiometry N [3]: 6
5 | B2 | 19.7 ± 3.9 | 0.0035 ± 0.000167 | 180 ± 10 | –
6 | B3 | 16.6 ± 1.0 | 0.00267 ± 0.000167 | 160 ± 20 | –
7 | B4 | 43.3 ± 2.0 | 0.0383 ± 0.00133 | 890 ± 30 | –
8 | B5 | – | – | – | stoichiometry N [4]: 6

Reference: paper PMC3637252, “Structural Basis of the Induced-Fit Mechanism of 1,4-Dihydroxy-2-Naphthoyl Coenzyme A Synthase from the Crotonase Fold Superfamily” (PLoS ONE, 2013)
